Reference: patent US20240301071A1 (Alector, published 2024)
Values belong to the binder of their own block, whether it stands above or below them.

Experiments:
rat SIRPA = biological target: T1, rat SIRPA (rat, UniProt P97710 32-373, limits assumed); assay: ELISA, plate coated with tagged SIRPA at 1 ug/mL
T1 sequence (looked up): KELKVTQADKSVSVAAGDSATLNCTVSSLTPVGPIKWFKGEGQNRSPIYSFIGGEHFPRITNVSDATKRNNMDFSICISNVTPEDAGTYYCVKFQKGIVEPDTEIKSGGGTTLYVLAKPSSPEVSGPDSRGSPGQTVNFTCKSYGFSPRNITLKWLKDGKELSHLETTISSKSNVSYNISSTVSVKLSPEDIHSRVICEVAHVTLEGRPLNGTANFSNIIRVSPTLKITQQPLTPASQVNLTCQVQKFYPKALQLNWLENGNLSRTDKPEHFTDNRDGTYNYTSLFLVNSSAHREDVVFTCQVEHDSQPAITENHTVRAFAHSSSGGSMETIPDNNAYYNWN
Method: (§1) In an ELISA assay, 96-well Immulon HBX plates were coated with His- or Fc-tagged SIRPA of a given species, as indicated, at 1 μg/mL in PBS overnight at 4C. Plates were blocked in 5% (w/v) bovine serum albumin in PBS for 1 hour, after which they were washed 3 times with PBS/0.05% Tween 20 (PBS/T). Anti-SIRPA antibodies were added to the plate in a dilution series and were incubated at room temperature for 2 hours, after which the unbound antibody was removed by washing with PBS/T. Horseradish peroxidase-conjugated anti-mouse IgG or anti-human kappa light chain (Jackson Immunoresearch) was then added to the wells and incubated for 30 minutes. Unbound antibody was removed by washing with PBS/T, after which bound antibody was detected using tetramethylbenzidine (TMB). The reaction was stopped with 2N H₂SO₄, after which the plates were read at A450.

cynoSIRPA XPO15313153.1 = biological target: T2, cynoSIRPA XPO15313153.1 (cynomolgus, UniProt A0A2K5VYQ9); assay: ELISA, plate coated with tagged SIRPA at 1 ug/mL
T2 construct: not tied one by one in the text; also called cynomolgus SIRPA; not shown: Fc or His tag
T2 sequence: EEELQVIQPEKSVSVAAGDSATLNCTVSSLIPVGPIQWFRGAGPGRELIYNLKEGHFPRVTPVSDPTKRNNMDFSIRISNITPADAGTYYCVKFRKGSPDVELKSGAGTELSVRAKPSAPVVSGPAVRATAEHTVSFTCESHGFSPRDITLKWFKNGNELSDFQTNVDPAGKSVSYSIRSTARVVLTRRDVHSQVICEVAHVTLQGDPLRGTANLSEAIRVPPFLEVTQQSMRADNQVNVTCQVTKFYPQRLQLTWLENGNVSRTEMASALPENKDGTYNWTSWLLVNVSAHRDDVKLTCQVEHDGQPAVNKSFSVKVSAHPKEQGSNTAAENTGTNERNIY
Method: as §1

huSIRPA v.2 NP542970.1 = biological target: T3, huSIRPA v.2 NP542970.1 (human, UniProt P78324 31-373, limits assumed); assay: ELISA, plate coated with tagged SIRPA at 1 ug/mL
T3 construct: see m48; also called human SIRPA v2; human SIRPA-Fc (v2)
T3 sequence (P78324 31-373 limits assumed): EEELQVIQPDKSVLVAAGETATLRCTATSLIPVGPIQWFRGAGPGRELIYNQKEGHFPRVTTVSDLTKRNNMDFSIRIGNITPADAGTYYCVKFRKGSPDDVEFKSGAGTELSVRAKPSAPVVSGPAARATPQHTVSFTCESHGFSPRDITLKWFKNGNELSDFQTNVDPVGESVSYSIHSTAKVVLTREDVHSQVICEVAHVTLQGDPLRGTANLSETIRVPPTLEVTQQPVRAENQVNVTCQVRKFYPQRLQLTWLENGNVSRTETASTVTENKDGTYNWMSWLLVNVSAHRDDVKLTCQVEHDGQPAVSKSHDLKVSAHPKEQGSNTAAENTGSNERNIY
Method: as §1

[1] = biological target: T4, human SIRPA v1 on BWZ cells (BWZ-huSIRPA) (human, UniProt P78324 31-504); assay: flow cytometry titration on BWZ cells overexpressing huSIRPA, 4 C
T4 construct: also called BWZ cells overexpressing human SIRPA; BWZ-huSIRPA v1 cells
T4 sequence (P78324 31-504): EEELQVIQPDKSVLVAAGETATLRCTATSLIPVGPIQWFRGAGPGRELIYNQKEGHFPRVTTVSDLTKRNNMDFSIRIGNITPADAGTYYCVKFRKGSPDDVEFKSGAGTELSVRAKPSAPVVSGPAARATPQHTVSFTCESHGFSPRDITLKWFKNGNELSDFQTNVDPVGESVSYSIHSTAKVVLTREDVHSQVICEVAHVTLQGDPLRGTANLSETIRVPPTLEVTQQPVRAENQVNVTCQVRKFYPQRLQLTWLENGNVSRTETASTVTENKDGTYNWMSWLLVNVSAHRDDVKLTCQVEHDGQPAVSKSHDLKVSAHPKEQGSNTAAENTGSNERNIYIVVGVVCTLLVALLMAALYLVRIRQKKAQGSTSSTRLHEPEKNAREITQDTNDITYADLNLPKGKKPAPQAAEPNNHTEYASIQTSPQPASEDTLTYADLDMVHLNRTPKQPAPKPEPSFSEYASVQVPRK
Method: Receptor bound antibodies were detected by staining cells with anti-mouse IgG Fc APC or anti-human IgG PE secondary antibody. Serial dilutions of the monoclonal antibodies were added to 10⁵ BWZ cells overexpressing huSIRPA (BWZ-huSIRPA) and allowed to achieve binding equilibrium at 4° C. After addition of fluorescently labeled secondary antibody and brief washing steps, mean fluorescent intensity (MFI) values as a function of titrated antibody concentration was recorded via FACS analysis. Curves were fit using nonlinear regression analysis with Graphpad Prism 6 software.

[2] = biological target: T5, CynoSIRPA (NP_001271679.1) (cynomolgus, UniProt A0A2K5VYQ9 31-507); assay: ELISA, plate coated with SIRP protein
T5 sequence: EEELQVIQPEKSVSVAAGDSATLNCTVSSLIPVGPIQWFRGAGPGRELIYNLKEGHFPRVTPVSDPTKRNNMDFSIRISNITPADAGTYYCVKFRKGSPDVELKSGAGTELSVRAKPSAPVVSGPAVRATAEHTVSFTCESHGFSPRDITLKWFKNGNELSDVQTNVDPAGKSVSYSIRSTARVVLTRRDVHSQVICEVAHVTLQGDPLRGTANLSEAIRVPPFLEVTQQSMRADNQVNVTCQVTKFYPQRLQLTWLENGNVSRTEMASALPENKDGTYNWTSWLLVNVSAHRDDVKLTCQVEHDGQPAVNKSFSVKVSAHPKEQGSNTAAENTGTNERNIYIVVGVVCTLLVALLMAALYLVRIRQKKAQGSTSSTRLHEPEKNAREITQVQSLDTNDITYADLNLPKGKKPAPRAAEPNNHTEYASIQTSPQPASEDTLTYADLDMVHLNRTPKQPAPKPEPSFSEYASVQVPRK
Method: as §1

[3] = biological target: T4, human SIRPA v1 on BWZ cells …; assay: flow cytometry titration on BWZ-huSIRPA cells, 4 C
Method: After addition of fluorescently labeled secondary antibody and brief washing steps, MFI values as a function of titrated antibody concentration was recorded via FACS analysis. […] Receptor bound antibodies were detected by staining cells with anti-human IgG PE secondary antibody. Curves were fit using nonlinear regression analysis with Graphpad Prism 6 software.

[4] = biological target: T6, histidine-tagged human SIRPA (Sino Biological) (human, UniProt P78324 31-370); assay: BLI (Octet RED96), antibody captured on anti-mouse IgG Fc sensor, His-tagged SIRPA in solution, 1:1 model
T6 construct: bought, soluble; also called histidine-tagged huSIRPA isoform 1; soluble SIRPA antigen; not shown: histidine tag
T6 sequence (P78324 31-370 limits assumed): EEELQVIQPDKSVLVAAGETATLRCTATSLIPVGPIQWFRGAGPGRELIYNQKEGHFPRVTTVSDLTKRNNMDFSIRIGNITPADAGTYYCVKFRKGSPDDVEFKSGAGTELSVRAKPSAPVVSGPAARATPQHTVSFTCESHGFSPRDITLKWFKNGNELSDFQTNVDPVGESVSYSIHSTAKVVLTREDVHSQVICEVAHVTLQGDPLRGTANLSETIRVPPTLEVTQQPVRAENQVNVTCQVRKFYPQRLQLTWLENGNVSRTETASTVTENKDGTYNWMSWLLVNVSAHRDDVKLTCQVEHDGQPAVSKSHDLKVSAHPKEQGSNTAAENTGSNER
Method: Affinity measurements for the anti-SIRPA antibodies were performed as follows. Bio-layer interferometry (BLI) data were collected on a Pall ForteBio Octet RED96 instrument. Data analysis was performed using ForteBio Data Analysis Software, version 9.0. Standard kinetic buffer (PBS, 0.100 BSA, 0.02% Tween-20, pH 7.2) was used for the assay and for preparing reagents. […] Varying concentrations (0-200 nM) of histidine-tagged human SIRPA (Sino Biological, Beijing, China) were then bound to the captured anti-SIRPA surface (300 s association time, 600 s dissociation time). The resulting BLI signal was obtained as the difference in response from the reference (2.5 μg/mL IgG+0 nM SIRPA) sensor. […] Multi-concentration kinetic analysis was performed using a 1:1 interaction model to extract association and dissociation rate constants (ka and kd, respectively) for each antibody. Binding affinity constants (KD) were calculated from the ratio kd/ka.
Best-fit traces from the resulting sensorgrams were analyzed to calculate association rate, dissociation rate, and affinity values.

[5] = biological target: T4, human SIRPA v1 on BWZ cells …; assay: flow cytometry competition on BWZ-huSIRPA v1 cells, competitor: fluorophore-labelled reference m3F9
From the text: IC50 values provide another comparison of relative affinity.

[6] = biological target: T7, human SIRPA on human macrophages (primary monocyte-derived macrophages; U937 line) (human, UniProt P78324 31-504); assay: cell-based or functional assay
T7 sequence (P78324 31-370): as the sequence (P78324 31-370 limits assumed) above

[7] = biological target: T8, histidine-tagged human SIRPA v1 (Novoprotein) (human, UniProt P78324 31-370, limits assumed); assay: BLI (Octet)
T8 construct: bought, soluble; also called huSIRPA; soluble huSIRPA; not shown: histidine tag
T8 sequence (P78324 31-370 limits assumed): as above
Method: (§2) Initial characterization of affinity matured anti-SIRPA antibodies disclosed herein comprised acquiring antigen affinity measurements using bio-layer interferometry (BLI) on a Pall ForteBio Octet RED96 instrument. Immobilized anti-mouse IgG Fc or anti-human IgG Fc antibodies captured murine anti-SIRPA 3F79 antibody and humanized anti-SIRPA 3F79 antibody on biosensors, respectively. Single cycle kinetics were performed with 25 nM huSIRPA [which variant?] or 50 nM huSIRPB 1 flowed over captured antibody 3F79 to record traces. Data analysis was performed using ForteBio Data Analysis Software, version 9.0. Standard kinetic buffer (PBS, 0.100 BSA, 0.02% Tween-20, pH 7.2) was used for the assay and for preparing reagents. […] 50 nM of histidine-tagged human SIRPA vi or human SIRPB1 (Novoprotein, Summit, NJ, USA) were then bound to the captured anti-SIRPA antibody coated surface (200 s association time, 900 s dissociation time). […] Single-curve kinetic analysis was performed using a 1:1 interaction model to extract association and dissociation rate constants (ka and kd, respectively) for each antibody. Affinity constants (KD) were calculated from the ratio kd/ka.

[8] = biological target: T7, human SIRPA on human macrophages …; assay: cell-based or functional assay; remark: listed apart in the source
[9] = biological target: T8, histidine-tagged human SIRPA v1 …; assay: BLI (Octet), antibody on anti-human IgG Fc sensor, His-huSIRPA in solution, single-curve 1:1 fit
Method: as §2

[10] = biological target: T9, Fc-tagged dog SIRPA (accession no. XP005634938) (dog, UniProt A0A8I3P880); assay: ELISA, plate coated with Fc-tagged SIRPA
T9 sequence: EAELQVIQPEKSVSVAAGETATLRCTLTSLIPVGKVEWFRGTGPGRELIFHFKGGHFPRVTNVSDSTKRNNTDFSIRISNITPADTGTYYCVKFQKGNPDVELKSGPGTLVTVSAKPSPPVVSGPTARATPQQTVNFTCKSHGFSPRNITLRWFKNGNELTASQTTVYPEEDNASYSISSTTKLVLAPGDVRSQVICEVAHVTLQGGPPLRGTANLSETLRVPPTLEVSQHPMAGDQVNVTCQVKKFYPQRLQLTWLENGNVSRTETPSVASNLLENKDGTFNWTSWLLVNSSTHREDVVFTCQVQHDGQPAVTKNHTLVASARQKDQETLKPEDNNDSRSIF
Method: as §1

[11] = biological target: T10, Fc-tagged marmoset SIRPA (accession no. JAB51896) (marmoset, UniProt U3F8F0 31-373); assay: ELISA, plate coated with Fc-tagged SIRPA
T10 sequence: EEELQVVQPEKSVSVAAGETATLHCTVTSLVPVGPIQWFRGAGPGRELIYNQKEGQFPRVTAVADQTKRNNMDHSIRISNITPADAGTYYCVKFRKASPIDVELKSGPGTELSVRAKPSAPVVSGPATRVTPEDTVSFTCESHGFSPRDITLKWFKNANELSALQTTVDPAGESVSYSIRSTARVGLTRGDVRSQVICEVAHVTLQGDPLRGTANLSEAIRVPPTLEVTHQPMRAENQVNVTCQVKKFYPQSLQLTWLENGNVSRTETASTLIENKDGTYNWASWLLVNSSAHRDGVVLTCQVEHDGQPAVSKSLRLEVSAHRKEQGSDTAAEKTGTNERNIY
Method: as §1

binding result (rat SIRPA): no binding | EC50 (cynoSIRPA XPO15313153.1): 1.09 nM | EC50 (huSIRPA v.2 NP542970.1): 0.695 nM | EC50 [1]: 2.1 nM | EC50 [2]: 0.658 nM | EC50 [3]: 0.72 nM | Kd [4]: 18 nM | koff [4]: 0.001 s⁻¹ | kon [4]: 50800 M⁻¹ s⁻¹ | IC50 [5]: 11.5 nM
B1: mouse anti-SIRPA antibody m3F9 (antibody, mouse IgG1, V domains shown)
VH: EVKLVESGGGLVKPGGSLKLSCAASGFTFSSYAMSWVRQTPEKRLEWVATISDYGGSYTYYPDSVKGRFTISRDNAKYTLYLQMSSLRSEDTALYYCARPPYDDYYGGFAYWGQGTLVTVSA
VL: DIVLTQSPASLAVSLGQRATISCRASKSVSSSGYSYMHWYQQKPGQPPKLLIYLASNLESGVPARFSGSGSGTDFTLNIHPVEEEDAATYYCQHNRELPCTFGGGTKLEIK
notes: hybridoma-derived murine IgG1; also called Parental m3F9 IgG1; 3F9 mIgG1

Phagocytosis, fold increase over baseline activity [6]: 1.56 fold | SIRPA IC50 (nM), downregulation on human primary macrophages [6]: 0.0372 nM | SIRPA Max % DR, human primary macrophages [6]: 89% | binding result (rat SIRPA): no binding | EC50 (cynoSIRPA XPO15313153.1): 0.879 nM | EC50 (huSIRPA v.2 NP542970.1): 0.08 nM | fold increase in affinity relative to parental h3F9 [7]: ~10 fold | SIRPA IC50 (nM), downregulation on U937 cells [8]: 1.17 nM | SIRPA Max % DR, U937 cells [8]: 69% | EC50 [3]: 0.42 nM | Kd [9]: 0.618 nM | koff [9]: 0.000102 s⁻¹ | kon [9]: 165000 M⁻¹ s⁻¹ | EC50 [10]: 0.64 nM | EC50 [11]: 1.2 nM
B2: 3F9-14 (antibody)
heavy: not shown
light: DIQLTQSPSSLSASVGDRVTITCRASKSVSSGGYSYMHWYQQKPGKAPKLLIYLASNLESGVPSRFSGSGSGTDFTLTISSVQPEDFATYYCQHNRELPVTFGQGTKLEIKRTVAAPSVFIFPPSDEQLKSGTASVVCLLNNFYPREAKVQWKVDNALQSGNSQESVTEQDSKDSTYSLSSTLTLSKADYEKHKVYACEVTHQGLSSPVTKSFNRGEC
notes: also called mAb 3F9-14; hu3F9-14

EC50 [2]: 7.44 nM
B3: anti-SIRPA antibody 9C2 (antibody, V domains shown)
VH: EFQLQQSGAELVKPGASVKISCKASGYSLTGYNMNWVKQSRGKSLEWIGNINPHYGSSTYNQNFKDKATLTVDKSSSAAYMQFNSLTSEDSAVYYCAREGYDGVFDYWGQGTTLTVSS
VL: QIVLSQSPAILSASPGEKVTMTCRASSSVSYMHWYQQKPGSSPKPWIYVTSNLASGVPTRFSGSGSGTSYSLTISRVEAEDAATYYCQQWSSNPRTFGGGTKLEIK
notes: described in PCT/US2017/65366; also called mAb 9C2
